Test results taken from patent US20250268994A1.

These substances were tested against delta (India) variant S glycoprotein of SARS-CoV-2 (SARS-CoV-2) (UniProt P0DTC2) (assay: cell-based or functional assay).

| Substance | Preliminary Estimate of IC50 (nM), RVP neutralization |
| --- | --- |
| hsACE2 H374N H378N (variant polypeptide encoded by SEQ ID NO: 6) (from UniProt Q9BYF1 18-740) (receptor) | 8.29 nM |
| hsACE2 N90D R273A (variant polypeptide encoded by SEQ ID NO: 4) (from UniProt Q9BYF1 18-740) (receptor) | 2.74 nM |
| hsACE2 N90D T92A (variant polypeptide encoded by SEQ ID NO: 5) (from UniProt Q9BYF1 18-740) (receptor) | 2.33 nM |
